Laboratory results as given in patent US20260242735A1 (UNIVERSIT T BASEL, published 2026).

B1: Refmab #1 (antibody, V domains shown)
VH: EVQLVQSGAEVKKPGSSVKVSCKASGYTITDSNIHWVRQAPGQSLEWIGYIYPYNGGTDYNQKFKNRATLTVDNPTNTAYMELSSLRSEDTAFYYCVNGNPWLAYWGQGTLVTVSS
VL: DIQLTQSPSTLSASVGDRVTITCRASESLDNYGIRFLTWFQQKPGKAPKLLMYAASNQGSGVPSRFSGSGSGTEFTLTISSLQPDDFATYYCQQTKEVPWSFGQGTKVEVK
notes: In the alanine scan antibodies were used as IgG or Fab; also called hP67.6
B2: Refmab #2 (antibody, V domains shown)
VH: QVQLVQSGAEVKKPGSSVKVSCKASGGTFSDYAISWVRQAPGQGLEWMGRIIPILGVADYAQKFQGRVTITADKSTRTAYMELSSLRSEDTAVYYCARNWADAFDIWGQGTMVTVSS
VL: DIQLTQSPSSLSASVGDRVTITCRASQGISSVLAWYQQKPGKAPKLLIYDASSLESGVPSRFSGSGSGTDFTLTISSLQPEDFATYYCQQFDSSITFGQGTKLEIK
notes: In the alanine scan antibodies were used as IgG or Fab
B3: Refmab #3 (antibody, V domains shown)
VH: QVQLVQSGAEVKKPGSSVKVSCKASGYTFTDYNMHWVRQAPGQGLEWIGYIYPYNGGTGYNQKFKSKATITADESTNTAYMELSSLRSEDTAVYYCARGRPAMDYWGQGTLVTVSS
VL: DIQMTQSPSSLSASVGDRVTITCRASESVDNYGISFMNWFQQKPGKAPKLLIYAASNQGSGVPSRFSGSGSGTDFTLTISSLQPDDFATYYCQQSKEVPWTFGQGTKVEIK
notes: as for B2
B4: Refmab #4 (antibody, V domains shown)
VH: QVQLVQSGAEVKKPGESVKVSCKASGYTFTNYGMNWVKQAPGQGLEWMGWINTYTGEPTYADKFQGRVTMTTDTSTSTAYMEIRNLGGDDTAVYYCARWSWSDGYYVYFDYWGQGTSVTVSS
VL: DIVMTQSPDSLTVSLGERTTINCKSSQSVLDSSTNKNSLAWYQQKPGQPPKLLLSWASTRESGIPDRFSGSGSGTDFTLTIDSPQPEDSATYYCQQSAHFPITFGQGTRLEIK
notes: as for B2
B5: Refmab #1 (antibody, V domains shown)
VH: EVQLVQSGAEVKKPGSSVKVSCKASGYTITDSNIHWVRQAPGQSLEWIGYIYPYNGGTDYNQKFKNRATLTVDNPTNTAYMELSSLRSEDTAFYYCVNGNPWLAYWGQGTLVTVSS
VL: DIQLTQSPSTLSASVGDRVTITCRASESLDNYGIRFLTWFQQKPGKAPKLLMYAASNQGSGVPSRFSGSGSGTEFTLTISSLQPDDFATYYCQQTKEVPWSFGQGTKVEVK
notes: The alanine scan used IgG or Fab; also called hP67.6
B6: Refmab #2 (antibody, V domains shown)
VH: QVQLVQSGAEVKKPGSSVKVSCKASGGTFSDYAISWVRQAPGQGLEWMGRIIPILGVADYAQKFQGRVTITADKSTRTAYMELSSLRSEDTAVYYCARNWADAFDIWGQGTMVTVSS
VL: DIQLTQSPSSLSASVGDRVTITCRASQGISSVLAWYQQKPGKAPKLLIYDASSLESGVPSRFSGSGSGTDFTLTISSLQPEDFATYYCQQFDSSITFGQGTKLEIK
notes: The alanine scan used IgG or Fab
B7: Refmab #3 (antibody, V domains shown)
VH: QVQLVQSGAEVKKPGSSVKVSCKASGYTFTDYNMHWVRQAPGQGLEWIGYIYPYNGGTGYNQKFKSKATITADESTNTAYMELSSLRSEDTAVYYCARGRPAMDYWGQGTLVTVSS
VL: DIQMTQSPSSLSASVGDRVTITCRASESVDNYGISFMNWFQQKPGKAPKLLIYAASNQGSGVPSRFSGSGSGTDFTLTISSLQPDDFATYYCQQSKEVPWTFGQGTKVEIK
notes: as for B6

Key:
Assay in all cases: alanine scan, flow cytometry, HEK293-T;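 note: antibody binding to each alanine-substituted CD33 mutant expressed transiently in HEK293-T, read as fluorescence minus background, mean of duplicates, relative to wild-type CD33 set as 100%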
human CD33 P174A = human CD33 P174A (human, UniProt P20138 18-364)
human CD33 P175A = human CD33 P175A (human, UniProt P20138 18-364)
human CD33 I176A = human CD33 I176A (human, UniProt P20138 18-364)
human CD33 P184A = human CD33 P184A (human, UniProt P20138 18-364)
human CD33 R190A = human CD33 R190A (human, UniProt P20138 18-364)
human CD33 T191A = human CD33 T191A (human, UniProt P20138 18-364)
human CD33 S194A = human CD33 S194A (human, UniProt P20138 18-364)
human CD33 I199A = human CD33 I199A (human, UniProt P20138 18-364)
human CD33 R202A = human CD33 R202A (human, UniProt P20138 18-364)
human CD33 H206A = human CD33 H206A (human, UniProt P20138 18-364)
human CD33 T223A = human CD33 T223A (human, UniProt P20138 18-364)
human CD33 E224A = human CD33 E224A (human, UniProt P20138 18-364)
human CD33 T226A = human CD33 T226A (human, UniProt P20138 18-364)
human CD33 I227A = human CD33 I227A (human, UniProt P20138 18-364)
human CD33 L229A = human CD33 L229A (human, UniProt P20138 18-364)
human CD33 T232A = human CD33 T232A (human, UniProt P20138 18-364)
human CD33 Q236A = human CD33 Q236A (human, UniProt P20138 18-364)
human CD33 T239A = human CD33 T239A (human, UniProt P20138 18-364)
human CD33 G241A = human CD33 G241A (human, UniProt P20138 18-364)
human CD33 T253A = human CD33 T253A (human, UniProt P20138 18-364)
human CD33 R254A = human CD33 R254A (human, UniProt P20138 18-364)
human CD33 V257A = human CD33 V257A (human, UniProt P20138 18-364)
human CD33 A265S = human CD33 A265S (human, UniProt P20138 18-364)
human CD33 G266A = human CD33 G266A (human, UniProt P20138 18-364)
human CD33 I278A = human CD33 I278A (human, UniProt P20138 18-364)
human CD33 F279A = human CD33 F279A (human, UniProt P20138 18-364)
human CD33 H285A = human CD33 H285A (human, UniProt P20138 18-364)
human CD33 R286A = human CD33 R286A (human, UniProt P20138 18-364)
human CD33 F243A = human CD33 F243A (human, UniProt P20138 18-364)
human CD33 K288A = human CD33 K288A (human, UniProt P20138 18-364)
human CD33 N297A = human CD33 N297A (human, UniProt P20138 18-364)
human CD33 S305A = human CD33 S305A (human, UniProt P20138 18-364)
human CD33 S307A = human CD33 S307A (human, UniProt P20138 18-364)
human CD33 S307A, sequence (P20138 18-364 S307A limits assumed): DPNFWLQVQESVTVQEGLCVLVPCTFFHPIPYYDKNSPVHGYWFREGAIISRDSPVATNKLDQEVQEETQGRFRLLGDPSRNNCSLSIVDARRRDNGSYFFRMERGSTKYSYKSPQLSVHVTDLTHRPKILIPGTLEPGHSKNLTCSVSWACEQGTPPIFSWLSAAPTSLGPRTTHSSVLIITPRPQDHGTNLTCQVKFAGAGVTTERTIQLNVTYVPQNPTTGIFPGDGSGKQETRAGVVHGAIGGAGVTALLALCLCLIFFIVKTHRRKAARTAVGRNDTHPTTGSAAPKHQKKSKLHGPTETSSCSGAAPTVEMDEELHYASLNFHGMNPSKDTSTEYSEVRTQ

human CD33 A265S, sequence (P20138 18-364 A265S limits assumed): as the sequence (P20138 18-364 S307A limits assumed) above, with A248S, A290S counted along it
human CD33 K288A, sequence (P20138 18-364 K288A limits assumed): as the sequence (P20138 18-364 S307A limits assumed) above, with K271A, A290S counted along it
human CD33 V257A, sequence (P20138 18-364 V257A limits assumed): as the sequence (P20138 18-364 S307A limits assumed) above, with V240A, A290S counted along it
human CD33 R202A, sequence (P20138 18-364 R202A limits assumed): as the sequence (P20138 18-364 S307A limits assumed) above, with R185A, A290S counted along it
human CD33 R286A, sequence (P20138 18-364 R286A limits assumed): as the sequence (P20138 18-364 S307A limits assumed) above, with R269A, A290S counted along it
human CD33 F243A, sequence (P20138 18-364 F243A limits assumed): as the sequence (P20138 18-364 S307A limits assumed) above, with F226A, A290S counted along it
human CD33 G241A, sequence (P20138 18-364 G241A limits assumed): as the sequence (P20138 18-364 S307A limits assumed) above, with G224A, A290S counted along it
human CD33 G266A, sequence (P20138 18-364 G266A limits assumed): as the sequence (P20138 18-364 S307A limits assumed) above, with G249A, A290S counted along it
human CD33 E224A, sequence (P20138 18-364 E224A limits assumed): as the sequence (P20138 18-364 S307A limits assumed) above, with E207A, A290S counted along it
human CD33 T239A, sequence (P20138 18-364 T239A limits assumed): as the sequence (P20138 18-364 S307A limits assumed) above, with T222A, A290S counted along it
human CD33 F279A, sequence (P20138 18-364 F279A limits assumed): as the sequence (P20138 18-364 S307A limits assumed) above, with F262A, A290S counted along it
human CD33 I176A, sequence (P20138 18-364 I176A limits assumed): as the sequence (P20138 18-364 S307A limits assumed) above, with I159A, A290S counted along it
human CD33 S194A, sequence (P20138 18-364 S194A limits assumed): as the sequence (P20138 18-364 S307A limits assumed) above, with S177A, A290S counted along it
human CD33 N297A, sequence (P20138 18-364 N297A limits assumed): as the sequence (P20138 18-364 S307A limits assumed) above, with N280A, A290S counted along it
human CD33 I227A, sequence (P20138 18-364 I227A limits assumed): as the sequence (P20138 18-364 S307A limits assumed) above, with I210A, A290S counted along it
human CD33 H285A, sequence (P20138 18-364 H285A limits assumed): as the sequence (P20138 18-364 S307A limits assumed) above, with H268A, A290S counted along it
human CD33 I278A, sequence (P20138 18-364 I278A limits assumed): as the sequence (P20138 18-364 S307A limits assumed) above, with I261A, A290S counted along it
human CD33 P184A, sequence (P20138 18-364 P184A limits assumed): as the sequence (P20138 18-364 S307A limits assumed) above, with P167A, A290S counted along it
human CD33 P175A, sequence (P20138 18-364 P175A limits assumed): as the sequence (P20138 18-364 S307A limits assumed) above, with P158A, A290S counted along it
human CD33 R190A, sequence (P20138 18-364 R190A limits assumed): as the sequence (P20138 18-364 S307A limits assumed) above, with R173A, A290S counted along it
human CD33 Q236A, sequence (P20138 18-364 Q236A limits assumed): as the sequence (P20138 18-364 S307A limits assumed) above, with Q219A, A290S counted along it
human CD33 R254A, sequence (P20138 18-364 R254A limits assumed): as the sequence (P20138 18-364 S307A limits assumed) above, with R237A, A290S counted along it
human CD33 T226A, sequence (P20138 18-364 T226A limits assumed): as the sequence (P20138 18-364 S307A limits assumed) above, with T209A, A290S counted along it
human CD33 T191A, sequence (P20138 18-364 T191A limits assumed): as the sequence (P20138 18-364 S307A limits assumed) above, with T174A, A290S counted along it
human CD33 I199A, sequence (P20138 18-364 I199A limits assumed): as the sequence (P20138 18-364 S307A limits assumed) above, with I182A, A290S counted along it
human CD33 P174A, sequence (P20138 18-364 P174A limits assumed): as the sequence (P20138 18-364 S307A limits assumed) above, with P157A, A290S counted along it
human CD33 S305A, sequence (P20138 18-364 S305A limits assumed): as the sequence (P20138 18-364 S307A limits assumed) above, with S288A, A290S counted along it
human CD33 T232A, sequence (P20138 18-364 T232A limits assumed): as the sequence (P20138 18-364 S307A limits assumed) above, with T215A, A290S counted along it
human CD33 H206A, sequence (P20138 18-364 H206A limits assumed): as the sequence (P20138 18-364 S307A limits assumed) above, with H189A, A290S counted along it
human CD33 L229A, sequence (P20138 18-364 L229A limits assumed): as the sequence (P20138 18-364 S307A limits assumed) above, with L212A, A290S counted along it
human CD33 T223A, sequence (P20138 18-364 T223A limits assumed): as the sequence (P20138 18-364 S307A limits assumed) above, with T206A, A290S counted along it
human CD33 T253A, sequence (P20138 18-364 T253A limits assumed): as the sequence (P20138 18-364 S307A limits assumed) above, with T236A, A290S counted along it

Binder	Mean % WT Binding (human CD33 P174A) [%]	Mean % WT Binding (human CD33 P175A) [%]	Mean % WT Binding (human CD33 I176A) [%]	Mean % WT Binding (human CD33 P184A) [%]	Mean % WT Binding (human CD33 R190A) [%]	Mean % WT Binding (human CD33 T191A) [%]	Mean % WT Binding (human CD33 S194A) [%]	Mean % WT Binding (human CD33 I199A) [%]	Mean % WT Binding (human CD33 R202A) [%]	Mean % WT Binding (human CD33 H206A) [%]	Mean % WT Binding (human CD33 T223A) [%]	Mean % WT Binding (human CD33 E224A) [%]	Mean % WT Binding (human CD33 T226A) [%]	Mean % WT Binding (human CD33 I227A) [%]	Mean % WT Binding (human CD33 L229A) [%]	Mean % WT Binding (human CD33 T232A) [%]	Mean % WT Binding (human CD33 Q236A) [%]	Mean % WT Binding (human CD33 T239A) [%]	Mean % WT Binding (human CD33 G241A) [%]	Mean % WT Binding (human CD33 T253A) [% WT binding]	also measured
B1	90.9	89.4	93.5	82.9	96.6	91.4	93.7	98.5	86.7	98.8	103	95.4	92	86.7	93.1	76.6	89.5	79.7	102		
B2	117	103	124	111	114	114	112	125	112	110	126	102	112	110	113	84.8	111	111	111		
B3	110	106	100	103	124	80	101	112	128	97.3	93.5	83.2	100	127	150	127	104	105	128		
B4	118	106	124	79.4	109	95.1	79	114	88.7	97.7	106	107	91.9	78.7	89.1	57.4	103	102	109		
B5																				94.5	Mean % WT Binding (human CD33 R254A): 101 % WT binding; Mean % WT Binding (human CD33 V257A): 102 % WT binding; Mean % WT Binding (human CD33 A265S): 93.2 % WT binding; Mean % WT Binding (human CD33 G266A): 100 % WT binding; Mean % WT Binding (human CD33 I278A): 99.1 % WT binding; Mean % WT Binding (human CD33 F279A): 104 % WT binding; Mean % WT Binding (human CD33 H285A): 100 % WT binding; Mean % WT Binding (human CD33 R286A): 96.3 % WT binding; Mean % WT Binding (human CD33 F243A): 86.5 % WT binding; Mean % WT Binding (human CD33 K288A): 112 % WT binding; Mean % WT Binding (human CD33 N297A): 94.9 % WT binding; Mean % WT Binding (human CD33 S305A): 86.4 % WT binding; Mean % WT Binding (human CD33 S307A): 94.8 % WT binding
B6																				104	Mean % WT Binding (human CD33 R254A): 118 % WT binding; Mean % WT Binding (human CD33 V257A): 108 % WT binding; Mean % WT Binding (human CD33 A265S): 104 % WT binding; Mean % WT Binding (human CD33 G266A): 116 % WT binding; Mean % WT Binding (human CD33 I278A): 106 % WT binding; Mean % WT Binding (human CD33 F279A): 116 % WT binding; Mean % WT Binding (human CD33 H285A): 109 % WT binding; Mean % WT Binding (human CD33 R286A): 117 % WT binding; Mean % WT Binding (human CD33 F243A): 102 % WT binding; Mean % WT Binding (human CD33 K288A): 108 % WT binding; Mean % WT Binding (human CD33 N297A): 108 % WT binding; Mean % WT Binding (human CD33 S305A): 107 % WT binding; Mean % WT Binding (human CD33 S307A): 112 % WT binding
B7																				98.1	Mean % WT Binding (human CD33 R254A): 88.4 % WT binding; Mean % WT Binding (human CD33 V257A): 89 % WT binding; Mean % WT Binding (human CD33 A265S): 92.4 % WT binding; Mean % WT Binding (human CD33 G266A): 97.8 % WT binding; Mean % WT Binding (human CD33 I278A): 100 % WT binding; Mean % WT Binding (human CD33 F279A): 138 % WT binding; Mean % WT Binding (human CD33 H285A): 94.3 % WT binding; Mean % WT Binding (human CD33 R286A): 92.4 % WT binding; Mean % WT Binding (human CD33 F243A): 107 % WT binding; Mean % WT Binding (human CD33 K288A): 107 % WT binding; Mean % WT Binding (human CD33 N297A): 133 % WT binding; Mean % WT Binding (human CD33 S305A): 103 % WT binding; Mean % WT Binding (human CD33 S307A): 60.1 % WT binding
